Laboratory results reported in the supplement of paper PMC10126150.
± gives the standard deviation of the averaged measurements.

System: ATP
Assay: switch fluorescence ratio, 500 uM ATP over buffer (Cy3 cluster intensity, sum of 5 cycles each) (fold (ratio)); higher = stronger signal-on switching upon ATP binding; sequences stand for … in TCGTCGGCAGCGTCAGATGTGTATAAGAGACAGTTTTTTTTTTTTTTTTTTTTTTTTT…TC
Details: aptamer strand: ATP DNA aptamer (quencher-CACCTGGGGGAGTATTGCGGAGGAAGG + anchor), 100 nM annealed; ATP concentration: 500 uM
Summary of the method: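 Cy3-labelled switching-strand clusters on a modified Illumina MiSeq flow-cell were annealed to 100 nM quencher-labelled ATP aptamer and imaged first in selection buffer, then after 15 min with 500 uM ATP at 22 °C. NaOH stripping and re-annealing separated each of five buffer/ATP cycles, and clusters outside 100-1000 RFU were excluded. The fluorescence ratio sums target-cycle Cy3 intensity over buffer-cycle Cy3 intensity per cluster and averages it per switch-domain sequence.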
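Further: ATP exposure 15 min at 22 °C before imaging.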

Sequence | switch fluorescence ratio
TAATTAAATA | 1.04 ± 0.038
TAATTAAGGA | 1.004 ± 0.0096
TAATTAATAG | 0.9971 ± 0.0031
TAATTAATGC | 1.02 ± 0.037
TAATTAGGGG | 1.06 ± 0.083
TAATTATAGC | 1.05 ± 0.049
TAATTATAGT | 1.01 ± 0.011
TAATTCCCGT | 1.01 ± 0.036
TAATTCGAG | 1.04 ± 0.029
TAATTCGGAT | 2.07 ± 1.8
TAATTCGTTA | 0.992 ± 0.037
TAATTGAGGC | 1.04 ± 0.017
TAATTGCGGT | 1.007 ± 0.0045
TAATTGGAGA | 0.989 ± 0.014
TAATTGGGTT | 1 ± 0.019
TAATTGT | 0.976 ± 0.03
TAATTGTTAT | 0.986 ± 0.024
TAATTTAAGA | 1.01 ± 0.013
TAATTTAATA | 1.02 ± 0.011
TAATTTAGTG | 0.9858 ± 0.0056
TAATTTCTGC | 0.993 ± 0.018
TAATTTGAAC | 1.02 ± 0.043
TAATTTGCAG | 0.9812 ± 0.0076
TAATTTGTCG | 0.982 ± 0.023
TAATTTGTGT | 1.01 ± 0.014
TAATTTTGGT | 0.9847 ± 0.0068

Sequence | switch fluorescence ratio
TAATTTTGTT | 1.02 ± 0.019
TAATTTTTTT | 1.01 ± 0.014
TACAACTTTC | 1.08 ± 0.051
TACAAGCTTT | 0.992 ± 0.024
TACAAGGTCA | 1.01 ± 0.0045
TACAATTTCG | 1.01 ± 0.032
TACACGGGGT | 1.05 ± 0.018
TACACGTTTT | 1.03 ± 0.021
TACAGACCCG | 1.07 ± 0.062
TACAGACGAT | 1.3 ± 0.068
TACAGCAGTA | 1.1 ± 0.14
TACAGCGGAG | 0.999 ± 0.066
TACAGGCGTA | 0.9955 ± 0.0069
TACAGGGGGG | 1 ± 0.027
TACAGGGGTA | 1.05 ± 0.012
TACAGGTGTG | 1.24 ± 0.044
TACAGGTTGG | 1.03 ± 0.037
TACAGGTTTT | 0.972 ± 0.073
TACAGTAGGA | 1.06 ± 0.064
TACAGTCAAC | 1.06 ± 0.041
TACATAGGCA | 1.03 ± 0.035
TACATCATCG | 1.14 ± 0.016
TACATCATGG | 1.04 ± 0.019
TACATGAAGA | 1.02 ± 0.013
TACATGAAGG | 0.995 ± 0.019
TACATGGGTA | 0.9583 ± 0.0072

Sequence | switch fluorescence ratio
TACATGGTTT | 1.01 ± 0.032
TACATGTCCG | 1.05 ± 0.064
TACATGTCGG | 1.01 ± 0.0022
TACATTAGGC | 1.05 ± 0.018
TACATTCGCG | 1.01 ± 0.035
TACATTGGCT | 0.982 ± 0.019
TACATTTGGG | 0.992 ± 0.021
TACCAAAGAA | 1.04 ± 0.026
TACCAATAAG | 1.03 ± 0.044
TACCACGGGT | 1.03 ± 0.018
TACCAGGGTA | 1.05 ± 0.047
TACCATGACC | 1.109 ± 0.0081
TACCATGGTT | 0.9841 ± 0.0061
TACCATTAGT | 1.041 ± 0.0085
TACCCCGGTA | 1.04 ± 0.035
TACCCGCGCG | 1.026 ± 0.003
TACCCGGGTT | 1.11 ± 0.2
TACCGCGGTT | 1.04 ± 0.03
TACCGCGTGG | 1.03 ± 0.017
TACCGCTTGC | 2.01 ± 0.53
TACCGGTGTC | 1.06 ± 0.047
TACCTATTGG | 0.9974 ± 0.0039
TACCTTGGGC | 1.04 ± 0.046
TACCTTTGGG | 1.02 ± 0.032
TACGAAGGGG | 1.02 ± 0.018
TACGAAGTAG | 0.993 ± 0.042

Sequence | switch fluorescence ratio
TACGAATCTG | 1.03 ± 0.019
TACGACACCT | 1.73 ± 0.027
TACGATGCTT | 1.2 ± 0.028
TACGCGGGGT | 1.29 ± 0.45
TACGCTTTTT | 1.02 ± 0.055
TACGGGAACG | 1.06 ± 0.018
TACGGGAGTC | 1.06 ± 0.16
TACGGGCACG | 1.04 ± 0.028
TACGGGCATA | 1.1 ± 0.049
TACGGGCGCG | 0.981 ± 0.017
TACGGGGCCT | 1.04 ± 0.064
TACGGGGG | 1.01 ± 0.071
TACGGGGGCG | 1.01 ± 0.1
TACGGGGGGT | 1.02 ± 0.026
TACGGTAAAA | 0.986 ± 0.044
TACGGTGGGA | 1.0079 ± 0.00053
TACGGTGTGG | 0.989 ± 0.04
TACGGTTACT | 1.27 ± 0.014
TACGGTTGCA | 1.01 ± 0.017
TACGGTTGGC | 0.989 ± 0.023
TACGTCATTA | 1.2 ± 0.012
TACGTCCCCG | 1.03 ± 0.04
TACGTCCCGA | 1.01 ± 0.045
TACGTGCATT | 1.0476 ± 0.00035
TACGTGCCTC | 0.99 ± 0.02
TACGTGGGGG | 1.02 ± 0.029

Sequence | switch fluorescence ratio
TACGTGGTGG | 1.05 ± 0.024
TACGTGTGGG | 1.02 ± 0.038
TACGTTGCAA | 1.22 ± 0.015
TACGTTTGCG | 1.01 ± 0.014
TACGTTTGGG | 0.981 ± 0.031
TACGTTTTTC | 1.003 ± 0.0048
TACTAACATT | 1.14 ± 0.019
TACTAAGGGG | 1.04 ± 0.041
TACTAAGTTG | 1.07 ± 0.055
TACTAATGGA | 1.01 ± 0.041
TACTACAGGG | 1.11 ± 0.013
TACTAGTTGT | 0.99 ± 0.022
TACTCATTGT | 1.03 ± 0.021
TACTCGCCAT | 1.13 ± 0.035
TACTCGCTGG | 1.07 ± 0.036
TACTCGGGCT | 1.017 ± 0.0044
TACTCTAAAA | 1.08 ± 0.022
TACTGACGAA | 1.27 ± 0.11
TACTGATAGG | 1.0161 ± 0.00099
TACTGGGTTC | 0.987 ± 0.047
TACTGGTATG | 1.03 ± 0.037
TACTGGTCCT | 1.03 ± 0.038
TACTGGTGGT | 0.992 ± 0.016
TACTGTGACA | 1.14 ± 0.012
TACTGTGGTC | 1.025 ± 0.0053
TACTGTTATG | 1.1 ± 0.099

Sequence | switch fluorescence ratio
TACTTAAGTG | 1.02 ± 0.047
TACTTAATAG | 1.03 ± 0.0015
TACTTAGA | 1.04 ± 0.015
TACTTAGCGA | 1.18 ± 0.044
TACTTAGGAT | 1.02 ± 0.044
TACTTAGGTG | 1.17 ± 0.12
TACTTATATG | 1.03 ± 0.016
TACTTATTGT | 0.9755 ± 0.0083
TACTTGTGTG | 0.988 ± 0.011
TACTTGTTTC | 1.01 ± 0.027
TACTTTAATT | 1.04 ± 0.014
TACTTTAGGG | 1.04 ± 0.024
TACTTTGCGG | 1.01 ± 0.063
TACTTTGGGC | 1.03 ± 0.065
TACTTTTATA | 1.03 ± 0.017
TAGAAAAGCA | 0.997 ± 0.024
TAGAAAAGGG | 1.03 ± 0.031
TAGAAAAGGT | 0.974 ± 0.028
TAGAAAATAA | 0.995 ± 0.021
TAGAAACCTT | 1.81 ± 1.1
TAGAAAGGGC | 1.01 ± 0.08
TAGAAATTAT | 1.19 ± 0.38
TAGAACGGGG | 0.9978 ± 0.0022
